Assay results from PMC2783965.
Where two headings read alike, the source gives them in different places.

Legend:
Test in all cases: FRET or BRET
[1] = target: 43S pre-initiation complex without eIF1 (40S•eIF1A-TAMRA•TC) (S. cerevisiae) (UniProt P38912)
[2] = target: 43S pre-initiation complex without eIF1 (40S•eIF1A-TAMRA•TC) (S. cerevisiae) (UniProt P38912); remark: listed apart in the source
[3] = target: 43S pre-initiation complex without eIF1 (40S•eIF1A-TAMRA•TC) (S. cerevisiae) (UniProt P38912); remark: listed apart in the source
[4] = target: 43S pre-initiation complex without eIF1 (40S•eIF1A-TAMRA•TC) (S. cerevisiae) (UniProt P38912); remark: listed apart in the source
[5] = target: 43S pre-initiation complex without eIF1 (40S•eIF1A-TAMRA•TC) (S. cerevisiae) (UniProt P38912); remark: listed apart in the source

Sequence of UniProt P38912 (P38912 whole entry, looked up, one chain of several): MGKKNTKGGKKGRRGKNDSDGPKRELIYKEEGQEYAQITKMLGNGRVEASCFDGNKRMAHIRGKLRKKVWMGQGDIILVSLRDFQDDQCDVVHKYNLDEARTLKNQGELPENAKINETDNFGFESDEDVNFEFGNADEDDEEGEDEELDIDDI

| kobs of eIF1 dissociation (slow phase) [1] [s⁻¹] | kobs of eIF1 dissociation (slow phase) [2] [s⁻¹] | kobs of eIF1 dissociation (slow phase) [3] [s⁻¹] | kobs of eIF1 dissociation (slow phase) [4] [s⁻¹] | kobs of eIF1 dissociation (slow phase) [5] [s⁻¹] | Substance |
| --- | --- | --- | --- | --- | --- |
| 0.08 | 0.1 |  |  |  | fluorescein-labeled G107K eIF1 (from UniProt P32911 1-108) (natural protein) |
| 0.13 | 0.4 | 0.56 | 0.14 | 0.4 | fluorescein-labeled WT eIF1 (from UniProt P32911 1-108) (natural protein) |
